Test results taken from publication PMC10783083, “Val43 residue of NsrR is crucial for the nitric oxide response of Salmonella Typhimurium”.

Tests used:
[1] = biological target: NsrR V43A, in vitro translated (Salmonella enterica serovar Typhimurium …, UniProt Q8ZKA3 1-141, V43A); assay: EMSA; 2 uM; clear shift; details: protein: ivt; tags: N-terminal His (pET28a); chain copies: 2; label: 32P (5' by T4 PNK); blunt
[2] = biological target: NsrR V43A (Salmonella enterica serovar Typhimurium …, UniProt Q8ZKA3 1-141, V43A); assay: EMSA; no NO; 0.0625-4 uM protein; stronger than WT; details: protein: recombinant; tags: N-terminal His (pET28a); chain copies: 2; label: 32P (5' by T4 PNK); blunt

B1: hmp probe (dsDNA)
DNA 1: AAGATGCATTTGATATACATCATT
DNA 2: AATGATGTATATCAAATGCATCTT
binding result [1]: binds
binding result [2]: binds
